Source: patent US12564617B2, “Methods for modulating macrophage activity” (Riptide Bioscience, Inc., priority 2019, dated 2026)

Target: T1, recombinant mouse CD206 full length protein (Mus musculus, UniProt Q61830)
T1 construct: honeybee melittin signal peptide (N); host or cells: Expi293E cells
T1 sequence (Q61830 23-1387): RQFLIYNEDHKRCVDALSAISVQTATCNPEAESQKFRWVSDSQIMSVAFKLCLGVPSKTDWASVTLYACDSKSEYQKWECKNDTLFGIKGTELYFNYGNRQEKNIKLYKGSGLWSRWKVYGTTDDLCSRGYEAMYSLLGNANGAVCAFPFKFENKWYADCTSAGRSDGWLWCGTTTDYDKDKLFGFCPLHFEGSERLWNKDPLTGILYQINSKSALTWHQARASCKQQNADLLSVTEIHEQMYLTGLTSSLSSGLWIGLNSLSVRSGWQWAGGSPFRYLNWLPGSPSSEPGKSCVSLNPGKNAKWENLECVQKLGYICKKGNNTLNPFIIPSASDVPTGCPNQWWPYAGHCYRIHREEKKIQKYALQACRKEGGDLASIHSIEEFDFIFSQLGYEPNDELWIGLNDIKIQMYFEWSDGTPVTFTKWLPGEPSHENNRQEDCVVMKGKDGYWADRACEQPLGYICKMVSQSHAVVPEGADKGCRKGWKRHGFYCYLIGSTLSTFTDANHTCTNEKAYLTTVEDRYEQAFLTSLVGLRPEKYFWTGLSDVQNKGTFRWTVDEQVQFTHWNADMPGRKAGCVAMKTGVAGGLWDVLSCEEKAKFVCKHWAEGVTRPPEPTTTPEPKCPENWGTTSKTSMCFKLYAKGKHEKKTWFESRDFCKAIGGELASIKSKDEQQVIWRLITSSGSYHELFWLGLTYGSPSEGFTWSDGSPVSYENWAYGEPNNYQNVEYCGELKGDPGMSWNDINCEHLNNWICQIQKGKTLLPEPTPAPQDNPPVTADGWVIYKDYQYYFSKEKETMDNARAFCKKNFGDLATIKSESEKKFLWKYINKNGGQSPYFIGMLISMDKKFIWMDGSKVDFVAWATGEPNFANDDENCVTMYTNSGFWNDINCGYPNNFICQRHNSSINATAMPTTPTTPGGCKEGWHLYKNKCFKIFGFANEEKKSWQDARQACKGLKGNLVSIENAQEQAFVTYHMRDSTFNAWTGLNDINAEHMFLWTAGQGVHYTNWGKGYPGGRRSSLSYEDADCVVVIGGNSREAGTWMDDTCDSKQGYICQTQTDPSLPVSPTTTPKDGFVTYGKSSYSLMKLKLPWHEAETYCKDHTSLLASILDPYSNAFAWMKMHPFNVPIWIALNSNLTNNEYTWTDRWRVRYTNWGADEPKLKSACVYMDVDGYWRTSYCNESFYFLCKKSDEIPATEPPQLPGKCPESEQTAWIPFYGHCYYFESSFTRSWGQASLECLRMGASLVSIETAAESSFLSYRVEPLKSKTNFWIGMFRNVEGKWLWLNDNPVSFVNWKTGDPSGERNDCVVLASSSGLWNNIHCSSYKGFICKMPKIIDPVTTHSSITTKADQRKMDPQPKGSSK
Assay: Negative stain electron microscopy of open vs closed CD206 conformation
Type: biochemical
Conditions: negative stain EM
Experimental: A 3 μL aliquot containing ˜0.01 mg/mL of the sample was applied for 20 seconds onto a carbon-coated 200 Cu mesh grid that had been glow discharged at 30 mA for 30 sec, then negatively stained with 0.7% (w/v) uranyl formate for 40 sec. […] Images were acquired with an Eagle 2k×2k CCD camera (http://FEI.com) using a nominal defocus of 1500 nm and the SerialEM software (54). […] Images were acquired with a Ceta 4k×4k CCD camera (http://FEI.com) using a nominal defocus of 1200 nm and the EPU software. For electron microscopy data processing, particles were selected from the micrographs, extracted, and a reference-free 2D class averages were obtained using RELION 2.1.0. Microscale thermophoresis and cellular thermal shift assays.

EKLSAFRNFF [AVP1]
closed vs open conformation of CD206: lower ratios of closed-to-open conformations

FFRKSKEKIG [LL37F1, 10mer motif from cathelicidin antimicrobial peptide [Homo sapiens]]
closed vs open conformation of CD206: lower ratios of closed-to-open conformations
